Laboratory results published in US20130224798A1.

Molecular target: Toll-like Receptor 5 (TLR5) constitutively expressed by HEK293 cells (UniProt O60602)
Test: cell-based or functional assay

B1: STF2.HA1-2mutHis(PR8), produced in Baculovirus (protein)
chain: AQVINTNSLSLLTQNNLNKSQSALGTAIERLSSGLRINSAKDDAAGQAIANRFTANIKGLTQASRNANDGISIAQTTEGALNEINNNLQRVRELAVQSANSTNSQSDLDSIQAEITQRLNEIDRVSGQTQFNGVKVLAQDNTLTIQVGANDGETIDIDLKQINSQTLGLDSLNVQKAYDVKDTAVTTKAYANNGTTLDVSGLDDAAIKAATGGTNGTASVTGGAVKFDADNNKYFVTIGGFTGADAAKNGDYEVNVATDGTVTLAAGATKTTMPAGATTKTEVQELKDTPAVVSADAKNALIAGGVDATDANGAELVKMSYTDKNGKTIEGGYALKAGDKYYAADYDEATGAIKAKTTSYTAADGTTKTAANQLGGVDGKTEVVTIDGKTYNASKAAGHDFKAQPELAEAAAKTTENPLQKIDAALAQVDALRSDLGAVQNRFNSAITNLGNTVNNLSEARSRIEDSDYATEVSNMSRAQILQQAGTSVLAQANQVPQNVLSLLASGSGSGSKGAAPLQLGKCNIAGWLLGNPECDPLLPVRSWSDIAETPNSENGICYPGDFIDYEELREQLSSVSSFERFEIFPKESSWPNHNTNGVTAACSHEGKSSFYRNLLWLTEKEGSYPKLKNSYVNKKGKEVLVLWGIHHPPNSKEQQNLYQNENAYVSVVTSNYNRRFTPEIAERPKVRDQAGRMNYYWTLLKPGDTIIFEANGNLIAPMYAFALSRGFGSGIITSHHHHHH
B1 was tested. Which TLR activity (EC50, ng/ml) did it give?
The TLR activity (EC50, ng/ml) was 900 ng/mL.

B2: STF2.HA1-2His(PR8), produced in Baculovirus (protein)
chain: AQVINTNSLSLLTQNNLNKSQSALGTAIERLSSGLRINSAKDDAAGQAIANRFTANIKGLTQASRNANDGISIAQTTEGALNEINNNLQRVRELAVQSANSTNSQSDLDSIQAEITQRLNEIDRVSGQTQFNGVKVLAQDNTLTIQVGANDGETIDIDLKQINSQTLGLDSLNVQKAYDVKDTAVTTKAYANNGTTLDVSGLDDAAIKAATGGTNGTASVTGGAVKFDADNNKYFVTIGGFTGADAAKNGDYEVNVATDGTVTLAAGATKTTMPAGATTKTEVQELKDTPAVVSADAKNALIAGGVDATDANGAELVKMSYTDKNGKTIEGGYALKAGDKYYAADYDEATGAIKAKTTSYTAADGTTKTAANQLGGVDGKTEVVTIDGKTYNASKAAGHDFKAQPELAEAAAKTTENPLQKIDAALAQVDALRSDLGAVQNRFNSAITNLGNTVNNLSEARSRIEDSDYATEVSNMSRAQILQQAGTSVLAQANQVPQNVLSLLASGSGSGSKGIAPQLGKCNIAGWLLGNPECDPLLPVRSWSYIVETPNSENGICYPGDFIDYEELREQLSSVSSFERFEIFPKESSWPNHNTNGVTAACSHEGKSSFYRNLLWLTEKEGSYPKLKNSYVNKKGKEVLVLWGIHHPPNSKEQQNLYQNENAYVSVVTSNYNRRFTPEIAERPKVRDQAGRMNYYWTLLKPGDTIIFEANGNLIAPMYAFALSRGFGSGIITSHHHHHH
How did the TLR activity (EC50, ng/ml) turn out when B2 was run?
The TLR activity (EC50, ng/ml) was 9 ng/mL.

B3: ngSTF2.HA1-2mutHis(PR8), produced in Baculovirus (protein)
chain: AQVINTNSLSLLTQNNLQKSQSALGTAIERLSSGLRINSAKDDAAGQAIANRFTANIKGLTQASRNANDGISIAQTTEGALNEINNNLQRVRELAVQSAQSTNSQSDLDSIQAEITQRLNEIDRVSGQTQFNGVKVLAQDNTLTIQVGANDGETIDIDLKQINSQTLGLDSLNVQKAYDVKDTAVTTKAYANQGTTLDVSGLDDAAIKAATGGTQGTASVTGGAVKFDADNNKYFVTIGGFTGADAAKNGDYEVNVATDGTVTLAAGATKTTMPAGATTKTEVQELKDTPAVVSADAKNALIAGGVDATDANGAELVKMSYTDKNGKTIEGGYALKAGDKYYAADYDEATGAIKAKTTSYTAADGTTKTAANQLGGVDGKTEVVTIDGKTYQASKAAGHDFKAQPELAEAAAKTTENPLQKIDAALAQVDALRSDLGAVQNRFNSAITNLGNTVNQLSEARSRIEDSDYATEVSQMSRAQILQQAGTSVLAQANQVPQNVLSLLASGSGSGSKGAAPQLGKCNIAGWLLGNPECDPLLPVRSWSDIAETPNSENGICYPGDFIDYEELREQLSSVSSFERFEIFPKESSWPNHNTNGVTAACSHEGKSSFYRNLLWLTEKEGSYPKLKNSYVNKKGKEVLVLWGIHHPPNSKEQQNLYQNENAYVSVVTSNYNRRFTPEIAERPKVRDQAGRMNYYWTLLKPGDTIIFEANGNLIAPMYAFALSRGFGSGIITSHHHHHH
With B3 as the binder, how does the TLR activity (EC50, ng/ml) read?
The TLR activity (EC50, ng/ml) was 9 ng/mL.

B4: ngSTF2.HA1-1His(PR8), produced in Baculovirus (protein)
chain: AQVINTNSLSLLTQNNLQKSQSALGTAIERLSSGLRINSAKDDAAGQAIANRFTANIKGLTQASRNANDGISIAQTTEGALNEINNNLQRVRELAVQSAQSTNSQSDLDSIQAEITQRLNEIDRVSGQTQFNGVKVLAQDNTLTIQVGANDGETIDIDLKQINSQTLGLDSLNVQKAYDVKDTAVTTKAYANQGTTLDVSGLDDAAIKAATGGTQGTASVTGGAVKFDADNNKYFVTIGGFTGADAAKNGDYEVNVATDGTVTLAAGATKTTMPAGATTKTEVQELKDTPAVVSADAKNALIAGGVDATDANGAELVKMSYTDKNGKTIEGGYALKAGDKYYAADYDEATGAIKAKTTSYTAADGTTKTAANQLGGVDGKTEVVTIDGKTYQASKAAGHDFKAQPELAEAAAKTTENPLQKIDAALAQVDALRSDLGAVQNRFNSAITNLGNTVNQLSEARSRIEDSDYATEVSQMSRAQILQQAGTSVLAQANQVPQNVLSLLASGSGSGSSHNGKLCRLKGIAPLQLGKCNIAGWLLGNPECDPLLPVRSWSYIVETPNSENGICYPGDFIDYEELREQLSSVSSFERFEIFPKESSWPNHNTNGVTAACSHEGKSSFYRNLLWLTEKEGSYPKLKNSYVNKKGKEVLVLWGIHHPPNSKEQQNLYQNENAYVSVVTSNYNRRFTPEIAERPKVRDQAGRMNYYWTLLKPGDTIIFEANGNLIAPMYAFALSRGFGSGIITSQASMHECNTKCQTPLGAIQSSLPYQNIHPVTIGECPKYVRHHHHHH
With B4 as the binder, how does the TLR activity (EC50, ng/ml) read?
Its TLR activity (EC50, ng/ml) is 30 ng/mL.

B5: STF2.HA1-1His(PR8), produced in E. coli (protein)
chain: MAQVINTNSLSLLTQNNLNKSQSALGTAIERLSSGLRINSAKDDAAGQAIANRFTANIKGLTQASRNANDGISIAQTTEGALNEINNNLQRVRELAVQSANSTNSQSDLDSIQAEITQRLNEIDRVSGQTQFNGVKVLAQDNTLTIQVGANDGETIDIDLKQINSQTLGLDSLNVQKAYDVKDTAVTTKAYANNGTTLDVSGLDDAAIKAATGGTNGTASVTGGAVKFDADNNKYFVTIGGFTGADAAKNGDYEVNVATDGTVTLAAGATKTTMPAGATTKTEVQELKDTPAVVSADAKNALIAGGVDATDANGAELVKMSYTDKNGKTIEGGYALKAGDKYYAADYDEATGAIKAKTTSYTAADGTTKTAANQLGGVDGKTEVVTIDGKTYNASKAAGHDFKAQPELAEAAAKTTENPLQKIDAALAQVDALRSDLGAVQNRFNSAITNLGNTVNNLSEARSRIEDSDYATEVSNMSRAQILQQAGTSVLAQANQVPQNVLSLLASHNGKLCRLKGIAPLQLGKCNIAGWLLGNPECDPLLPVRSWSYIVETPNSENGICYPGDFIDYEELREQLSSVSSFERFEIFPKESSWPNHNTNGVTAACSHEGKSSFYRNLLWLTEKEGSYPKLKNSYVNKKGKEVLVLWGIHHPPNSKEQQNLYQNENAYVSVVTSNYNRRFTPEIAERPKVRDQAGRMNYYWTLLKPGDTIIFEANGNLIAPMYAFALSRGFGSGIITSNASMHECNTKCQTPLGAINSSLPYQNIHPVTIGECPKYVRHHHHHH
How did the TLR5 activity (EC50, ng/ml) turn out when B5 was run?
The TLR5 activity (EC50, ng/ml) was 0.2 ng/mL.
